Measurements: PMC10786891, “Massively parallel profiling of RNA-targeting CRISPR-Cas13d”
Substitutions are numbered along the chain they refer to. In names and notes the source's numbering stands.

T1: EsCas13d, nuclease-dead (Eubacterium siraeum, UniProt B0MS50, R295A;H300A;R849A;H854A)
T1 sequence: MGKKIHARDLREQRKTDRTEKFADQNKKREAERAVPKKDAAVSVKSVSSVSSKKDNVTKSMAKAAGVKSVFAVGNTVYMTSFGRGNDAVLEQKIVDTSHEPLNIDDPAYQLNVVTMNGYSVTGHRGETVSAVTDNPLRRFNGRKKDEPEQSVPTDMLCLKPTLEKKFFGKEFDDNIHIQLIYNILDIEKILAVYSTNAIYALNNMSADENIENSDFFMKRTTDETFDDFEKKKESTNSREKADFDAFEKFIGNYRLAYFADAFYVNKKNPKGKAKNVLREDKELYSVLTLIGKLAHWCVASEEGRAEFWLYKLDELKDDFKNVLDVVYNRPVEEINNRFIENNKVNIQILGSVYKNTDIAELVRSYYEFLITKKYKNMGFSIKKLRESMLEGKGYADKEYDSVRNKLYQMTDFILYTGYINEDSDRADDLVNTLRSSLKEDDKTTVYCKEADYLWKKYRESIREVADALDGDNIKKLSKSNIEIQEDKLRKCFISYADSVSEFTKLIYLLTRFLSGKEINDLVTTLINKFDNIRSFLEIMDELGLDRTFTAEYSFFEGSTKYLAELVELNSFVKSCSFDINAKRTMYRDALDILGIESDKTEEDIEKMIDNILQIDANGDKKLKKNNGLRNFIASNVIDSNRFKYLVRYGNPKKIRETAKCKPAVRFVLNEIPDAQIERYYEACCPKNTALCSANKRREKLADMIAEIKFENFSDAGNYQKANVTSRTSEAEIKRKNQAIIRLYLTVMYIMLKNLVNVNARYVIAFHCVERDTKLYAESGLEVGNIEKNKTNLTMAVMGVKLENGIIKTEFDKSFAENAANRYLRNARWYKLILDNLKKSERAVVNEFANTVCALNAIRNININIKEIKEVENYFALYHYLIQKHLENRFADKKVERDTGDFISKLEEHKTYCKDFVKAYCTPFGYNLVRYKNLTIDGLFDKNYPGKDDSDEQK

B1: target 1 insC 3' of 12,insG 3' of 9 (mixed)
RNA 1: CACCCGUGCAAAAAUGCAGGGGUCUAAAACUGAGCGGAUAACCUCUCUAUGG
RNA 2: GGGAAUGGAUCCACAUCUACGAAUUCGUACCAUAGAGAGGCUUAGUCCGCUCACCGAGAUCGGAAGAGCACACGU
B2: target 1 del5 (mixed)
RNA 1: B1 RNA 1
RNA 2: GGGAAUGGAUCCACAUCUACGAAUUCGUACCAUAGAGAGGUUAUCCCUCACCGAGAUCGGAAGAGCACACGU
B3: target 1 insG 3' of 8,insU 3' of 5 (mixed)
RNA 1: B1 RNA 1
RNA 2: B1 RNA 2 with C41U, U43A, A44U, U46C, C48G, G49U
B4: target 1 U8C,C21U (mixed)
RNA 1: B1 RNA 1
RNA 2: GGGAAUGGAUCCACAUCUACGAAUUCGUACUAUAGAGAGGUUACCCGCUCACCGAGAUCGGAAGAGCACACGU
B5: target 1 insC 3' of 14,insA 3' of 10 (mixed)
RNA 1: B1 RNA 1
RNA 2: B1 RNA 2 with G39C, C41G, G45A
B6: target 1 A9U,A16G (mixed)
RNA 1: B1 RNA 1
RNA 2: B4 RNA 2 with U31C, A36G, A43U, C44U
B7: target 1 insG 3' of 22,insA 3' of 13 (mixed)
RNA 1: B1 RNA 1
RNA 2: GGGAAUGGAUCCACAUCUACGAAUUCGUACGCAUAGAGAGAGUUAUCCGCUCACCGAGAUCGGAAGAGCACACGU
B8: target 1 A1G,G15A (mixed)
RNA 1: B1 RNA 1
RNA 2: B4 RNA 2 with U31C, G37A, C44U, A51G
B9: target 1 insU 3' of 22,insC 3' of 20 (mixed)
RNA 1: B1 RNA 1
RNA 2: B7 RNA 2 with G31U, U34C, A35U, G36A, A37G, G38A, A39G, G40A, A41G
B10: target 1 insU 3' of 17,insG 3' of 16 (mixed)
RNA 1: B1 RNA 1
RNA 2: B1 RNA 2 with A36U, G37A, A38G, G40A, C41G, U42G, A44U, G45A
B11: target 1 A1G,C2U (mixed)
RNA 1: B1 RNA 1
RNA 2: B4 RNA 2 with U31C, C44U, C50U, A51G
B12: target 1 insU 3' of 20,insU 3' of 7 (mixed)
RNA 1: B1 RNA 1
RNA 2: B7 RNA 2 with G31C, C32A, A33U, A41G, G42U, U44A, A45U, U46C, C47U
B13: target 1 C7A,G17U (mixed)
RNA 1: B1 RNA 1
RNA 2: B4 RNA 2 with U31C, G35U, C44U, C45A
B14: target 1 insC 3' of 9,insA 3' of 6 (mixed)
RNA 1: B1 RNA 1
RNA 2: B1 RNA 2 with C41U, U43A, A44C, G45U, U46C, C48A
B15: target 1 insA 3' of 21,insU 3' of 4 (mixed)
RNA 1: B1 RNA 1
RNA 2: GGGAAUGGAUCCACAUCUACGAAUUCGUACCAAUAGAGAGGUUAUCCGCUUCACCGAGAUCGGAAGAGCACACGU
B16: target 1 G12U,C22U (mixed)
RNA 1: B1 RNA 1
RNA 2: B4 RNA 2 with C30U, U31C, G40U, C44U
B17: target 1 C2G,A9U (mixed)
RNA 1: B1 RNA 1
RNA 2: B4 RNA 2 with U31C, A43U, C44U, C50G
B18: target 1 C2U (mixed)
RNA 1: B1 RNA 1
RNA 2: B4 RNA 2 with U31C, C44U, C50U
B19: target 1 insA 3' of 15,insA 3' of 10 (mixed)
RNA 1: B1 RNA 1
RNA 2: B1 RNA 2 with G39A, C41G, G45A
B20: target 1 G5A,U8A (mixed)
RNA 1: B1 RNA 1
RNA 2: B4 RNA 2 with U31C, C44A, G47A
B21: target 1 del7,del13 (mixed)
RNA 1: B1 RNA 1
RNA 2: GGGAAUGGAUCCACAUCUACGAAUUCGUACCAUAGAGAGUUAUCGCUCACCGAGAUCGGAAGAGCACACGU
B22: target 1 G15A (mixed)
RNA 1: B1 RNA 1
RNA 2: B4 RNA 2 with U31C, G37A, C44U
B23: target 1 C6A,C22G (mixed)
RNA 1: B1 RNA 1
RNA 2: B4 RNA 2 with C30G, U31C, C44U, C46A
B24: target 1 insA 3' of 11,insU 3' of 2 (mixed)
RNA 1: B1 RNA 1
RNA 2: B1 RNA 2 with C41U, U42A, G45U, U46C, C48G, G49C, C50U, U51C, C52U
B25: target 1 insG 3' of 22,insA 3' of 5 (mixed)
RNA 1: B1 RNA 1
RNA 2: B15 RNA 2 with C31G, A32C, C49A, U50C
B26: target 1 C4U (mixed)
RNA 1: B1 RNA 1
RNA 2: B4 RNA 2 with U31C, C44U, C48U
B27: target 1 insA 3' of 19,insU 3' of 17 (mixed)
RNA 1: B1 RNA 1
RNA 2: B1 RNA 2 with G35A, A36G, G37U, G40A, C41G, U42G, A44U, G45A
B28: target 1 insG 3' of 21,insG 3' of 3 (mixed)
RNA 1: B1 RNA 1
RNA 2: B15 RNA 2 with A32G, U51G

target: T1, EsCas13d, nuclease-dead; assay: crRNA (strand 1, pre-loaded); Mg2+; 40 mM Tris-HCl pH 7.5, 150 mM NaCl, 6 mM MgCl2, 1 mM DTT, 0.1% Tween-20, 0.2 mg/ml BSA; 25 C; 10 min per concentration, then washed; settings: tags: His6-TwinStrep-SUMO cleaved; N-terminal SNAP kept (SNAP-Surface 488); label: 3' end held by stalled T7 RNA polymerase

| Binder | Kd |
| --- | --- |
| B1 | 24 ± 1.2 nM |
| B2 | 10.4 ± 0.5 nM |
| B3 | 15.7 ± 1.1 nM |
| B4 | 9.6 ± 0.5 nM |
| B5 | 55 ± 8 nM |
| B6 | 67 ± 9 nM |
| B7 | 11.5 ± 0.7 nM |
| B8 | 11.1 ± 0.5 nM |
| B9 | 18.3 ± 1.4 nM |
| B10 | 44 ± 5 nM |
| B11 | 8.7 ± 0.7 nM |
| B12 | 28.6 ± 1.5 nM |
| B13 | 34 ± 6 nM |
| B14 | 14 ± 0.4 nM |
| B15 | 12.5 ± 1 nM |
| B16 | 21.7 ± 2.8 nM |
| B17 | 8.7 ± 1 nM |
| B18 | 9.7 ± 0.7 nM |
| B19 | 9.7 ± 0.6 nM |
| B20 | 45 ± 4 nM |
| B21 | 15.6 ± 1.3 nM |
| B22 | 10.8 ± 0.4 nM |
| B23 | 39 ± 5 nM |
| B24 | 22.2 ± 1.1 nM |
| B25 | 23.1 ± 2.2 nM |
| B26 | 30 ± 4 nM |
| B27 | ~38 nM |
| B28 | 43 ± 6 nM |
